Experimental findings from publication PMC10897489 are described below.

The test deals with GST-NSP3 1–181 (SARS-CoV-2). In words: ITC. (In ITC the heat of successive injections is recorded.)

The Kd is the constant that tells how readily two partners part at equilibrium. The substance “His-FXR1 215–360 (from UniProt A0A0F7L1S3 215-360) (domain or fragment)” yielded an equilibrium dissociation constant (Kd) of 2300 to 2900 nM.
